According to the supplement of paper PMC10724198:
± gives the standard deviation of the averaged measurements.

Tested on: Saccharomyces cerevisiae
Experiment: protein stability index of tFT-peptide fusion (C-terminal peptide) (PSI (0-1 scale)); higher = more stable (slower turnover)
Details: temperature: 30 C
Experimental: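 MPS profiling in S. cerevisiae of the yeast C-terminome library: the last 12 aa of each annotated ORF are fused to the C-terminus of a sfGFP-mCherry timer, after a GGGS linker. Cells are FACS-sorted into 8 mCherry/sfGFP bins and deep-sequenced. PSI runs from 0 (unstable) to 1 (stable); wild type and das1Δ backgrounds, two technical replicates each.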

[1] = genetic background: das1 deletion

Sequence | protein stability index [1] | protein stability index (genetic background: wild type)
SQSFNPLESVQE [YPL229W C-terminal 12 aa] | 0.7038 ± 0.0039 | 0.709 ± 0.1
SRIKNACLHRMN [RRN7 C-terminal 12 aa] | 0.6966 ± 0.0047 | 0.681 ± 0.035
SRVYAYYLTHEK [NNT1 C-terminal 12 aa] | 0.666 ± 0.007 | 0.67 ± 0.018
SSFEKFQYYSKA [AGP2 C-terminal 12 aa] | 0.72 ± 0.024 | 0.688 ± 0.049
SSLMVIHPLDDT [MID1 C-terminal 12 aa] | 0.6918 ± 0.0012 | 0.695 ± 0.006
SSSYNYNVHKLA [YDR278C C-terminal 12 aa] | 0.6925 ± 0.0039 | 0.134 ± 0.013
STDEKRLVMSLK [IMH1 C-terminal 12 aa] | 0.692 ± 0.042 | 0.709 ± 0.014
STDEKTSENETL [YPR071W C-terminal 12 aa] | 0.6746 ± 0.0056 | 0.656 ± 0.024
STICRDIILIPN [CHK1 C-terminal 12 aa] | 0.688 ± 0.03 | 0.6527 ± 0.0013
STKFEEDQVAPL [ICP55 C-terminal 12 aa] | 0.679 ± 0.007 | 0.686 ± 0.029
STSDSENFMQQH [RPI1 C-terminal 12 aa] | 0.705 ± 0.013 | 0.729 ± 0.049
SVFIASLLLAII [FLO1 C-terminal 12 aa] | 0.31 ± 0.0059 | 0.323 ± 0.021
SVLTGGAVWMLF [DFG5 C-terminal 12 aa] | 0.7186 ± 0.0037 | 0.652 ± 0.013
TAIAHRAYIQLK [RSM7 C-terminal 12 aa] | 0.709 ± 0.035 | 0.685 ± 0.033
TALLIDNILTCK [MRM1 C-terminal 12 aa] | 0.7 ± 0.021 | 0.694 ± 0.048
TALLVSYCHLCV [YMR122C C-terminal 12 aa] | 0.625 ± 0.0077 | 0.6243 ± 0.0048
TAREKKNEMFSF [YCL023C C-terminal 12 aa] | 0.69596 ± 0.00065 | 0.711 ± 0.06
TASTSNSRNQTM [SPO71 C-terminal 12 aa] | 0.701 ± 0.03 | 0.687 ± 0.038
TASYLKDAVYLH [ATP6 C-terminal 12 aa] | 0.699 ± 0.031 | 0.703 ± 0.025
TCVYKKPERHKA [TCM62 C-terminal 12 aa] | 0.707 ± 0.03 | 0.701 ± 0.024
TDNTVDKFDFYK [RPT3 C-terminal 12 aa] | 0.711 ± 0.016 | 0.71 ± 0.013

Sequence | protein stability index [1] | protein stability index (genetic background: wild type)
TDVVLCARLADD [RIB7 C-terminal 12 aa] | 0.676 ± 0.014 | 0.7 ± 0.038
TEFGITKENLGE [TOG1 C-terminal 12 aa] | 0.697 ± 0.03 | 0.691 ± 0.032
TEIPYKPFTRQP [YOR293C-A C-terminal 12 aa] | 0.724 ± 0.0085 | 0.739 ± 0.013
TFHTVGDRYEMA [YPR127W C-terminal 12 aa] | 0.7019 ± 0.006 | 0.69654 ± 0.00054
TGKVFTRTNQSK [YFL019C C-terminal 12 aa] | 0.71 ± 0.035 | 0.698 ± 0.011
THNEGSSVKKMH [SLC1 C-terminal 12 aa] | 0.694 ± 0.045 | 0.674 ± 0.037
THPAGTLENATQ [YIL102C C-terminal 12 aa] | 0.694 ± 0.022 | 0.742 ± 0.017
TISNPFGDHNKI [LSB5 C-terminal 12 aa] | 0.727 ± 0.034 | 0.738 ± 0.099
TKAVHINLSLDN [ALD2 C-terminal 12 aa] | 0.69 ± 0.0043 | 0.702 ± 0.015
TKEYMDSIRSAK [VPS45 C-terminal 12 aa] | 0.687 ± 0.023 | 0.766 ± 0.099
TKKSTGKGPASS [BOL3 C-terminal 12 aa] | 0.7 ± 0.033 | 0.675 ± 0.03
TLFCLLFRFIIF [YIP5 C-terminal 12 aa] | 0.265 ± 0.0053 | 0.2739 ± 0.001
TLGEVINELNNK [VAM6 C-terminal 12 aa] | 0.7226 ± 0.0022 | 0.676 ± 0.011
TLHLVLRLRGGN [UBI4 C-terminal 12 aa] | 0.665 ± 0.013 | 0.687 ± 0.067
TLSYIRVHKLVK [TYC1 C-terminal 12 aa] | 0.647 ± 0.019 | 0.493 ± 0.015
TMVERRVSFTAQ [YER119C-A C-terminal 12 aa] | 0.73 ± 0.031 | 0.711 ± 0.022
TNIIRETLKSLN [ATP22 C-terminal 12 aa] | 0.786 ± 0.1 | –
TNNRHKYQNGRK [YLL032C C-terminal 12 aa] | 0.7 ± 0.053 | 0.664 ± 0.0094
TNPHQADASPKK [MPE1 C-terminal 12 aa] | 0.71 ± 0.023 | 0.702 ± 0.021
TQKLNEKSSKES [ATC1 C-terminal 12 aa] | 0.715 ± 0.031 | 0.644 ± 0.036
TSASSNFDDSFS [YCR018C-A C-terminal 12 aa] | 0.6885 ± 0.0016 | 0.717 ± 0.062

Sequence | protein stability index [1] | protein stability index (genetic background: wild type)
TSGRYASYRICM [RPB5 C-terminal 12 aa] | 0.6941 ± 0.0011 | 0.664 ± 0.011
TSIESALITLDL [MER1 C-terminal 12 aa] | 0.682 ± 0.016 | 0.695 ± 0.032
TSPRAINPKRSA [YDL114W C-terminal 12 aa] | 0.695 ± 0.021 | 0.703 ± 0.02
TSSFTEAVIKRL [IDH2 C-terminal 12 aa] | 0.696 ± 0.011 | 0.6628 ± 0.0025
TSSNPKSHQYSK [ROF1 C-terminal 12 aa] | 0.717 ± 0.0022 | 0.689 ± 0.029
TSTNTIYATVTI [DSE2 C-terminal 12 aa] | 0.688 ± 0.018 | 0.6656 ± 0.001
TTRETPLPPIPA [TYW1 C-terminal 12 aa] | 0.609 ± 0.012 | 0.642 ± 0.015
TTTEVETETAKQ [YPR063C C-terminal 12 aa] | 0.679 ± 0.011 | 0.7 ± 0.027
TTWKTTCKIFGE [YBL055C C-terminal 12 aa] | 0.693 ± 0.019 | 0.712 ± 0.008
TVETLLKLFTKS [SLD7 C-terminal 12 aa] | 0.6879 ± 0.0025 | 0.69379 ± 0.00044
TVRKGVYMRLYY [YNL146C-A C-terminal 12 aa] | 0.668 ± 0.0024 | 0.634 ± 0.036
TYYRRRATANSL [YMR155W C-terminal 12 aa] | 0.6958 ± 0.0045 | 0.676 ± 0.011
VACCGCNMTVAY [YIL058W C-terminal 12 aa] | 0.528 ± 0.015 | 0.533 ± 0.029
VANTTNMNMNLM [DIA1 C-terminal 12 aa] | 0.6954 ± 0.0035 | 0.737 ± 0.027
VDKYEAGMSITK [SWC4 C-terminal 12 aa] | 0.688 ± 0.0058 | 0.671 ± 0.03
VFEISNKELFLT [YIL029W-A C-terminal 12 aa] | 0.6922 ± 0.0023 | 0.452 ± 0.016
VFLKKDTDIYIC [YML084W C-terminal 12 aa] | 0.63 ± 0.019 | 0.612 ± 0.03
VFRIVARGYVGW [BBC1 C-terminal 12 aa] | 0.701 ± 0.04 | 0.691 ± 0.046
VFVTGILSTVYI [AIT1 C-terminal 12 aa] | 0.6444 ± 0.0011 | 0.6108 ± 0.0049
